Laboratory results published in publication PMC2998070.

Biological target: mouse VMS1-Flag-HA (mouse) (UniProt Q80UU1)
Test: co-IP

Sequence of VCP (Q01853 whole entry): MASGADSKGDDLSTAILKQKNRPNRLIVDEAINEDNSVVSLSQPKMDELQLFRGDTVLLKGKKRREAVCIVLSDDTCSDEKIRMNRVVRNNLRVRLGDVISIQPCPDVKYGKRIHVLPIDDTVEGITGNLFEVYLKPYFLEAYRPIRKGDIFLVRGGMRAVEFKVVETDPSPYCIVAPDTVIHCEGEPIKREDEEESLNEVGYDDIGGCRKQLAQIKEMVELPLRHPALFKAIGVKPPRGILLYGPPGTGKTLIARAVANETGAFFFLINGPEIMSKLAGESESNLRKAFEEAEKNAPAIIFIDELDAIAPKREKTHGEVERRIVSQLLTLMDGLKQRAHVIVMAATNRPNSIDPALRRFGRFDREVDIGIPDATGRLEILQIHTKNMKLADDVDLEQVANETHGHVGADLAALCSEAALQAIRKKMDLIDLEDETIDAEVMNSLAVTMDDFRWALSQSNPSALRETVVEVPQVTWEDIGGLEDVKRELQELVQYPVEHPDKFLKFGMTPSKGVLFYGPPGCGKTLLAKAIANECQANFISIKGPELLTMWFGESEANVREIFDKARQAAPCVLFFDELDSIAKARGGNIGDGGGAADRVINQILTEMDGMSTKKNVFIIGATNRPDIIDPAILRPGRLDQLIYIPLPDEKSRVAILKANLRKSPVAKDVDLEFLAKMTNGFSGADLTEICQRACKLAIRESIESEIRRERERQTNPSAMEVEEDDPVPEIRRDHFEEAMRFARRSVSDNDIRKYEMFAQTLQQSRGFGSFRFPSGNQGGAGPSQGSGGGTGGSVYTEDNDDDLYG
Sequence of UniProt Q80UU1 (Q80UU1 whole entry): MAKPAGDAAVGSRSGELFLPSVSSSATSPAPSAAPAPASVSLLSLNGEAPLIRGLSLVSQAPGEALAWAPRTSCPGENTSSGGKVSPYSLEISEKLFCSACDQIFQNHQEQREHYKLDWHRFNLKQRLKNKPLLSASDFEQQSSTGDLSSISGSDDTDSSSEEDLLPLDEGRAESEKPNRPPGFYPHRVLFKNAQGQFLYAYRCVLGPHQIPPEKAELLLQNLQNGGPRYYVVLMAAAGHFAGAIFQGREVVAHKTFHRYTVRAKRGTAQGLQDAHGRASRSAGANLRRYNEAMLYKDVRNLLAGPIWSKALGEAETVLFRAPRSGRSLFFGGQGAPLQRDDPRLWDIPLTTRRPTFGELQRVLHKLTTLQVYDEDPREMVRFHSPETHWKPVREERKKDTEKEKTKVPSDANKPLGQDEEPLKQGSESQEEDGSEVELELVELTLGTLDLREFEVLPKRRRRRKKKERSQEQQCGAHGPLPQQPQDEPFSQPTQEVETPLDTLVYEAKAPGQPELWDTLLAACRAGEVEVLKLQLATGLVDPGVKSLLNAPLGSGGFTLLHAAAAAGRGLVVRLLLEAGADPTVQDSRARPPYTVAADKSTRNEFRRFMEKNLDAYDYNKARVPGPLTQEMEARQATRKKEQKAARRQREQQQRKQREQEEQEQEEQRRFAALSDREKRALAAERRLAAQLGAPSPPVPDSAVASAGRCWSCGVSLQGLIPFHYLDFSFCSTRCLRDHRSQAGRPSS

percent of the total cellular VCP associated with Vms1: < 5%
Substance: VCP (from UniProt Q01853 1-806) (natural protein)
